In patent US20250257130A1 (NONA BIOSCIENCES SUZHOU, published 2025):
Residue numbers refer to the chain shown, from its start. Blank lines part the entries; values can stand above or below the binder they belong to.

Experiments:
[1] = biological target: T1, Human ROR1-ECD-his (Acro Biosystems RO1-H522y) (human, UniProt Q01973 30-406); experiment: BLI in-tandem, row = 1st Ab; competitor (2nd Ab): PR007417
T1 construct: extracellular domain; bought protein; also called hROR1-ECD-his; hu-ROR1-ECD-his
Text: (§1) To determine if anti-ROR1 antibodies bind to human ROR1 on different or approximate binding epitopes, the ForteBio Octet® RED96e platform was used to perform epitope competition experiments on the anti-ROR1 antibodies. Human ROR1 protein (Acrobiosystems, #RO1-H522y) was biotinylated and then captured onto SA biosensors (ForteBio, #18-5020) to reach loading level of 0.3-0.4 nm. The in-tandem competition assay format was applied and it contains two association steps. Firstly, the antigen-loaded biosensors bind to each antibody (a.k.a, First antibody, 1st Ab) with a saturating concentration of 200 nM for 180 seconds to reach equilibrium and then secondly bind to the competing antibodies (a.k.a, Second antibody, 2nd Ab) of 200 nM for 180 seconds. The second binding signals were recorded as the 100% signal of each antibody when the first antibodies were replaced by kinetics buffer. All the binding data were analyzed using ForteBio Data Analysis 11.0 software. The inhibition rate is calculated by the following formula: […]

[2] = biological target: T2, hu-ROR2-ECD-his (Acrobiosystems RO2-H52E5) (human, UniProt Q01974 34-403); experiment: BLI, antibody on AHC sensor, ROR2-His in solution
T2 construct: extracellular domain; bought protein; also called Human ROR2 his-tagged protein; Human ROR2, His Tag
Method: In the example, binding kinetics of anti-ROR1 antibodies to soluble ROR2 protein were analyzed by using Bio-Layer Interferometry (BLI) analysis on Fortebio Octet Red384 instrument (Fortebio). […] The captured biosensors were then dipped in wells containing 2-fold serial dilutions of antigen proteins to detect association signals, followed by dissociation steps in wells containing 1× kinetic buffer. Human ROR2 his-tagged protein (Acrobiosystems, #RO2-H52E5) was diluted from 600 nM to 37.5 nM; the association phase was 180 seconds, and the dissociation phase was 180 seconds. The sensorgrams were recorded and the reference signals were subtracted before curve fitting using ForteBio Data Analysis 11.0 software. Association rates (kₒₙ) and dissociation rates (kdis) were calculated using a simple one-to-one Langmuir binding model. The equilibrium dissociation constant (KD) was calculated as the ratio of kdis/kₒₙ.

[3] = biological target: T3, human ROR1 on cells (HEK293T-hROR1, PANC-1, A549) (human, UniProt Q01973 30-937); experiment: flow cytometry on PANC-1 cells, MFI (Median-APC) [middle panel, letter not given]
T3 construct: whole, on cells; one molecule for the three cell lines; also called huROR1; cell surface ROR1

[4] = biological target: T1, Human ROR1-ECD-his (Acro Biosystems …); experiment: BLI in-tandem, row = 1st Ab; competitor (2nd Ab): PR005340
Text: as §1

[5] = biological target: T1, Human ROR1-ECD-his (Acro Biosystems …); experiment: BLI in-tandem, row = 1st Ab; competitor (2nd Ab): PR000374
Text: as §1

[6] = biological target: T1, Human ROR1-ECD-his (Acro Biosystems …); experiment: BLI, antibody on AHC sensor, ROR1-His 5-80 nM in solution
Method: The captured biosensors were then dipped in wells containing 2-fold serial dilutions of antigen proteins to detect association signals, followed by dissociation steps in wells containing 1× kinetic buffer. Human ROR1 hits-tagged protein (Acrobiosystems, #RO1-H522y) was diluted from 80 nM to 5 nM; the association phase was 180 seconds, and the dissociation phase was 600 seconds. The sensorgrams were recorded and the reference signals were subtracted before curve fitting using ForteBio Data Analysis 11.0 software. Association rates (kₒₙ) and dissociation rates (kdis) were calculated using a simple one-to-one Langmuir binding model. The equilibrium dissociation constant (KD) was calculated as the ratio of kdis/kₒₙ.

[7] = biological target: T1, Human ROR1-ECD-his (Acro Biosystems …); experiment: BLI in-tandem, row = 1st Ab; competitor (2nd Ab): PR005338
Text: as §1

[8] = biological target: T3, human ROR1 on cells (HEK293T-hROR1, …); experiment: flow cytometry, PANC-1 cells
Method: (§2) In brief, anti-ROR1 antibodies were serially diluted in staining buffer (PBS containing 2% FBS). Antibody solution was incubated with 1×10⁵ cells at 4° C. for 1 hour. […] After 1-hour incubation at 4° C., cells were washed twice with staining buffer and subjected to flow cytometry. PR000374 (Bench marker 1) and non-relevant IgG isotype control (Crownbio) were used as positive and negative controls, respectively.
Binding activity of the variants to PANC-1 cells were tested using the same method described in example 5.1. The results were shown in FIGS. 7-8 and Table 11 and Table 12.

[9] = biological target: T1, Human ROR1-ECD-his (Acro Biosystems …); experiment: BLI in-tandem, row = 1st Ab; competitor (2nd Ab): PR007424
Text: as §1

[10] = biological target: T3, human ROR1 on cells (HEK293T-hROR1, …); experiment: flow cytometry on PANC-1 cells, MFI (Median-APC) [bottom panel, letter not given]
[11] = biological target: T4, cynomolgus ROR1 on CHO-K1-cynoROR1 cells (cynomolgus monkey, UniProt A0A2K5WTX7 30-937); experiment: flow cytometry, CHO-K1-cynoROR1 cells
T4 construct: whole, on cells
Method: (§3) Binding of recombinant anti-ROR1 antibodies to human or cynomolgus ROR1-overexpressing cells was tested by flow cytometry. In this example, ROR1-expressing cell lines are HEK293T cell lines that had been transfected to express human ROR1 on the surface (HEK293T-hu ROR1, KYINNO BIOTECHNOLOGY CO., LTD, Catalog #KC-1018), CHO-K1 cell lines that had been transfected to express cynomolgus ROR1 (CHOK1-cyno ROR1), PANC-1 (ATCC, catalog: CRL-1469) or A549 cell lines (Shanghai Institute of Biochemistry and Cell Biology, Chinese Academy of Sciences).
as §2

[12] = biological target: T3, human ROR1 on cells (HEK293T-hROR1, …); experiment: flow cytometry, PANC-1 cells; remark: listed apart in the source
Method: as §2

[13] = biological target: T3, human ROR1 on cells (HEK293T-hROR1, …); experiment: flow cytometry on PANC-1 cells, MFI (FITC-A Median)
Method: as §3, §2

[14] = biological target: T2, hu-ROR2-ECD-his (Acrobiosystems …); experiment: ELISA, plate coated with hu-ROR2-his at 1 µg/mL
Method: 1 μg/mL hu-ROR2-ECD-his (Acrobiocystems, RO2-H52E5) was added to the 96-well plate, 100 μL each well, incubated at 4° C. overnight, washing the plates with 1×PBST 3 times, 300 ul/well, blocking the plates with 2% BSA in 1×PBST, 200 ul/well at 37° C. for 1 hour, anti-ROR1 antibodies were serially diluted in staining buffer (PBS containing 2% BSA). Antibody solution was added to the plate and incubates at 37° C. for 1 hour, washing the plates with 1×PBST 3 times, 300 ul/well, adding secondary antibody 100 ul/well and incubate at 37° C. for 1 hour, washing the plates with 1×PBST 3 times, 300 ul/well and then add 100 ul/well TMB for about 5 min, stop the reaction by adding 100 ul/well 2M H₂SO₄, read the plates with Molecular device spectra max plus384 at 450 nm and 570 nm.

[15] = biological target: T4, cynomolgus ROR1 on CHO-K1-cynoROR1 cells; experiment: flow cytometry, CHO-K1-cynoROR1 cells; remark: listed apart in the source
Method: as §2

[16] = biological target: T1, Human ROR1-ECD-his (Acro Biosystems …); experiment: ELISA, plate coated with hu-ROR1-his at 1 µg/mL
Method: (§4) Binding of recombinant anti-ROR1 antibodies to hu-ROR1-ECD-his was tested by ELISA. In brief, 1 μg/mL hu-ROR1-ECD-his was added to the 96-well plate, 100 μL each well, incubated at 4° C. overnight, washing the plates with 1×PBST 3 times, 300 ul/well, blocking the plates with 2% BSA in 1×PBST, 200 ul/well at 37° C. for 1 hour, anti-ROR1 antibodies were serially diluted in staining buffer (PBS containing 2% BSA). Antibody solution was added to the plate and incubates at 37° C. for 1 hour, washing the plates with 1×PBST 3 times, 300 ul/well, adding secondary antibody 100 ul/well and incubate at 37° C. for 1 hour, washing the plates with 1×PBST 3 times, 300 ul/well and then add 100 ul/well TMB for about 5 min, stop the reaction by adding 100 ul/well 2M H₂SO₄, read the plates with Molecular device spectra max plus384 at 450 nm and 570 nm.

[17] = biological target: T3, human ROR1 on cells (HEK293T-hROR1, …); experiment: flow cytometry on HEK293T-hROR1 cells, MFI (Mean)
Method: as §3, §2

[18] = biological target: T3, human ROR1 on cells (HEK293T-hROR1, …); experiment: flow cytometry, A549 cells
Method: as §2

[19] = biological target: T1, Human ROR1-ECD-his (Acro Biosystems …); experiment: BLI, ROR1-His on HIS1K sensor, antibody in solution
Method: In the example, binding kinetics of anti-ROR1 antibodies to soluble ROR1 protein were analyzed by using Bio-Layer Interferometry (BLI) analysis on Fortebio Octet Red384 instrument (Fortebio).
In BLI analysis, recombinant anti-ROR1 antibodies was serially diluted with 10× kinetics buffer (Fortebio). Human ROR1-His proteins were diluted to 20 nM. Then the diluted antibodies, ROR1 proteins and regeneration buffer (10 mM glycine HCl pH 1.5) were added to 96-well plates (Greiner). Rate constants for association and dissociation were measured using HIS1K sensor (Fortebio). The sensor surface was regenerated after each binding experiment with regeneration buffer. The traces were processed using Octet Data Analysis Software (version 11.0, Pall ForteBio, CA, USA).

[20] = biological target: T4, cynomolgus ROR1 on CHO-K1-cynoROR1 cells; experiment: flow cytometry on CHOK1-cynoROR1 cells, MFI (Mean) [bottom panel, letter not given]
Method: as §3, §2

[21] = biological target: T3, human ROR1 on cells (HEK293T-hROR1, …); experiment: flow cytometry, HEK293T-hROR1 cells
Method: as §2

[22] = biological target: T1, Human ROR1-ECD-his (Acro Biosystems …); experiment: ELISA, coated hu-ROR1-ECD-his
Method: as §4

T1 sequence (Q01973 30-406): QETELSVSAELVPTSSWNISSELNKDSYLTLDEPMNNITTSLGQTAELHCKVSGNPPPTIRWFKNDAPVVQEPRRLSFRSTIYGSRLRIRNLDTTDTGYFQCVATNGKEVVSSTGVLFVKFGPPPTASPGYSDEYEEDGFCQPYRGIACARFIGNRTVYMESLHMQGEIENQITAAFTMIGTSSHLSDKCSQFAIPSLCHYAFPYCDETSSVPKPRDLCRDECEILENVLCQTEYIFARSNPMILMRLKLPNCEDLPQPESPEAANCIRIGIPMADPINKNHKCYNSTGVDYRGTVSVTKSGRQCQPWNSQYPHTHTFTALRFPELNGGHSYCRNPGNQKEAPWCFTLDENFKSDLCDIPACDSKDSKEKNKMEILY
T2 sequence (Q01974 34-403): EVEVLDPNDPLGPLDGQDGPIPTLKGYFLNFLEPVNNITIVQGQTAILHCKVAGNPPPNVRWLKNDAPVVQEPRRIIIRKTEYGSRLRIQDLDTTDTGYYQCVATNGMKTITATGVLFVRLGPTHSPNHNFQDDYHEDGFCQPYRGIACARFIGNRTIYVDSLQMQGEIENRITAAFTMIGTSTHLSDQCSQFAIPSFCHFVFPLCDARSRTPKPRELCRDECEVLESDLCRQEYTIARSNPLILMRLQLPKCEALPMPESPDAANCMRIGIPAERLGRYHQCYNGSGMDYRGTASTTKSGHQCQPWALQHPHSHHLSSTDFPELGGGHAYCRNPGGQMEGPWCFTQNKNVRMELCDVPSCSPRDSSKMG
T3 sequence (Q01973 30-937): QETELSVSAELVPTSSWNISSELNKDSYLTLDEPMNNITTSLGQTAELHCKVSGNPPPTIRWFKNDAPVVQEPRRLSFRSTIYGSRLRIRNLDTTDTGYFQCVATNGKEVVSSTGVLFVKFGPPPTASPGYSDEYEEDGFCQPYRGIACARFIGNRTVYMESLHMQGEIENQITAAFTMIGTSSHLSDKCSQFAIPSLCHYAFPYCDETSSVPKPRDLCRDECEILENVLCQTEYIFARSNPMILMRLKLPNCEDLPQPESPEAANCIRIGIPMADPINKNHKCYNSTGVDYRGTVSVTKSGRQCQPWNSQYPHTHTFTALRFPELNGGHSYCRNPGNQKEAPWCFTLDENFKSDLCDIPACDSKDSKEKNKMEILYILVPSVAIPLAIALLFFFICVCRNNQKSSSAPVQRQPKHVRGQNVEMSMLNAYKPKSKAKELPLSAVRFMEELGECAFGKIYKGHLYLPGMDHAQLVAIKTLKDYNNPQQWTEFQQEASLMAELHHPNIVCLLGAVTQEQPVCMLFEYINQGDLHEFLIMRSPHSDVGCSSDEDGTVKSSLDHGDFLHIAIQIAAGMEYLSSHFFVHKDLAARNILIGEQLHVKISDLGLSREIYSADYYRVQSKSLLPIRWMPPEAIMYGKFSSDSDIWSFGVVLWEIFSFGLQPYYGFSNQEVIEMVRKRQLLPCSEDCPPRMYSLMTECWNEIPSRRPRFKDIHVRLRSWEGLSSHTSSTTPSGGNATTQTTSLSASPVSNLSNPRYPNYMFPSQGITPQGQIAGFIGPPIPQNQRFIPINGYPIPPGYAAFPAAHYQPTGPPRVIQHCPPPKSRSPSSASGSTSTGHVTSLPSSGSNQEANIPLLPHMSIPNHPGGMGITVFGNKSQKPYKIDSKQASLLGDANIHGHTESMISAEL

Inhibition (%) [1]: 111%
binding result [2]: no binding (tested: 37.5-600 nM)
EC50 (read off the curve) [10]: ~600 pM
Inhibition (%) [4]: 111%
Inhibition (%) [5]: -0.73%
Kd [6]: 1010 pM
koff [6]: 0.000284 s⁻¹
kon [6]: 281000 M⁻¹ s⁻¹
Inhibition (%) [7]: 108%
TOP [8]: 70800
Inhibition (%) [9]: 107%
B2: PR007424 (antibody, V domains shown)
VH: EVQLVESGGGLVKPGGSLRLSCAASGFTFSDYYMSWIRQAPGKGLEWISYIDSSGRPLAYADSVKGRFTISRDNAKNSLYLQMNSLRAEDTAIYYCARDMPSSSSDWVSLQFDYWGQGTLVTVSS
notes: bivalent form (HCAb) variant of PR005340, no light chain

binding result [14]: no binding (tested: about 15 µg/ml)
EC50 [15]: 0.057 µg/mL
MAX(MFI) [15]: 1.07e+07 MFI
EC50 (read off the curve) [16]: ~0.004 µg/mL
MAX(MFI) [12]: 935000 MFI
EC50 (read off the curve) [17]: ~0.06 µg/mL
EC50 [18]: 0.08 µg/mL
MAX(MFI) [18]: 1.23e+06 MFI
Kd [19]: 4890 pM
koff [19]: 0.00626 s⁻¹
kon [19]: 1.28e+06 M⁻¹ s⁻¹
EC50 (read off the curve) [20]: ~0.06 µg/mL
EC50 [21]: 0.066 µg/mL
MAX(MFI) [21]: 1.55e+07 MFI
EC50 [22]: 0.004 µg/mL
B4: PR303201 (antibody, human IgG1, V domains shown)
VH: EVQLLESGGGLVQPGGSLRLSCAASGFTFSGNAMSWVRQAPGKGLEWVSAISGSGDKTYYAASVKGRFTISRDNSNNTVYLQMNSLRAEDTAVYYCEKGAFRTTMDYWGQGTLVTVSS
notes: HCAb (heavy chain-only, human IgG1 Fc), no light chain

The remaining lines, values behind:

B1: PR007417 (antibody, V domains shown)
VH: B2 VH with Y32F, D52S, R56S, P57T, L58R, A59Y, M100I, S109D
notes: as for B2
Inhibition (%) [1]: 113%
binding result [2]: no binding (tested: 37.5-600 nM)
EC50 (read off the curve) [3]: ~800 pM
Inhibition (%) [4]: 116%
Inhibition (%) [5]: 10.2%
Kd [6]: 180 pM
koff [6]: 4.86e-05 s⁻¹
kon [6]: 271000 M⁻¹ s⁻¹
Inhibition (%) [7]: 114%
TOP [8]: 83800
Inhibition (%) [9]: 111%

B3: PR005351 (antibody, human IgG1, V domains shown)
VH: QVQLVESGGGLVKPGGSLRLSCAASGFKLSDFQMSWIRQAPGKGLEWVAYIDTNGSTRYYAESVKGRFTLSRDNVKNSLNLQMNGLRAEDTALYYCARIPSYTSSWYEDFDHWGQGTLVTVSS
notes: as for B4
Max [11]: 27500
Max [12]: 10900
EC50 (read off the curve) [13]: ~20000 pM
